For five substances, IC50 results are on record in publication PMC8863895.

Test [1] deals with C3b (human). The test can be described thus: ELISA; decay acceleration assay: 250 ng C3b immobilised on Maxisorp; C3bBb formed with 400 ng Factor B and 25 ng Factor D, 2 h 37 °C; increasing concentrations of regulator, 40 min 37 °C; Bb remaining bound to C3b detected with anti-factor B polyclonal antibody. A general note: ELISA stands for enzyme-linked immunosorbent assay.
The target in test [2] is complement C3b (UniProt P01024). The experiment in a line: ELISA; 5 µg/mL C3b or C5 immobilised on Maxisorp plates at 4 °C overnight; increasing concentrations of regulator (0.195-50 nM) in sample buffer (2% BSA in TBS, 0.05% Tween-20); detected with anti-His-tag antibodies; absorbance normalised to the highest concentration; IC50 from a 4PL nonlinear regression.
In test [3] the target is complement C5. The test is described as above.
The target of test [4] is complement C3b (UniProt P01024). The test is described as above. The source holds these as a separate data set.
The target of test [5] is complement C5. The test is described as above. The source holds these as a separate data set.

Read-outs that look alike come from different tables or passages of the source.

Chain of human factor H, plasma-derived (hFH) (P08603 19-1231): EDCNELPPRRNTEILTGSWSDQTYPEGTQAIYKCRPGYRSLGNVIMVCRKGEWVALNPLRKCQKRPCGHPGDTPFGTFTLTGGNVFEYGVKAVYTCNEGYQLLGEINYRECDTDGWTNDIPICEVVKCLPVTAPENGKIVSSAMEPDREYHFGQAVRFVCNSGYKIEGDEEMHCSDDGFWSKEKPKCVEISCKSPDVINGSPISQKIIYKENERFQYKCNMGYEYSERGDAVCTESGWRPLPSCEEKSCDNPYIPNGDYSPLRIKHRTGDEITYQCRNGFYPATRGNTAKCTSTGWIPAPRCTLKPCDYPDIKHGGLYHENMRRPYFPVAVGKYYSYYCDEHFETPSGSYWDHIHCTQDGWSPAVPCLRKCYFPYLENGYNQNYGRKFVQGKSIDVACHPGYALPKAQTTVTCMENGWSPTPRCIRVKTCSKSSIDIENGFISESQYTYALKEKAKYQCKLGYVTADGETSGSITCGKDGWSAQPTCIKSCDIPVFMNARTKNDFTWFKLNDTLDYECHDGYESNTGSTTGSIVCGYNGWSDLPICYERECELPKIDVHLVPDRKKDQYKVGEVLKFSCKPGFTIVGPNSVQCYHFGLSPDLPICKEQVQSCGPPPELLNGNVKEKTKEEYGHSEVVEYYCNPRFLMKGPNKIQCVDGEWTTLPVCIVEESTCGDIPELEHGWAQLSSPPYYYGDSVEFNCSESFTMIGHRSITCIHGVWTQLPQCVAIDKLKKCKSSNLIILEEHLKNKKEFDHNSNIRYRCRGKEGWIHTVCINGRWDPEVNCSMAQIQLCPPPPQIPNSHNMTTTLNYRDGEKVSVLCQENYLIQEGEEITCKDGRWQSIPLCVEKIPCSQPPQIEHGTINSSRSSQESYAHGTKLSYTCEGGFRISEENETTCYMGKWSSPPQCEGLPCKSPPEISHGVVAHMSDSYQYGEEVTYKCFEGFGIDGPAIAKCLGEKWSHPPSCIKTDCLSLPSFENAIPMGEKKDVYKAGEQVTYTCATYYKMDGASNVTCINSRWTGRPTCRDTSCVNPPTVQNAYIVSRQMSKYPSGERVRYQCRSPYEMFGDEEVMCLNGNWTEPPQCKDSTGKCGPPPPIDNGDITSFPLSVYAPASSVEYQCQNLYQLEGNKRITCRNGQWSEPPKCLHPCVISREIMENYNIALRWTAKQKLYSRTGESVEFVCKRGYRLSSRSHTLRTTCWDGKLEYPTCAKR

In general, IC50 refers to the concentration that inhibits the measured activity by half. Read a high IC50 as weaker potency in that assay. Turning to “MFHR1^I62 (FHR1_(1-2):FH1-4:FH_(19-20), isoleucine at position 193 = position 62 of factor H) (from UniProt Q03591 19-143; P08603 18-264; P08603 1107-1231)”, the IC50 in test [1] was found to be 7.8 nM.
With “MFHR1^V62 (FHR1_(1-2):FH1-4:FH_(19-20), valine at position 62 of factor H)”, the IC50 is 6.32 nM in test [2] and 26.8 nM in test [3].
The substance “human factor H, plasma-derived (hFH) (from UniProt P08603 19-1231) (natural protein)” showed an IC50 in test [1] of 3.8 nM.
Same read-out and setting: the result for “MFHR1^V62 (FHR1_(1-2):FH1-4:FH_(19-20)) (from UniProt Q03591 19-143; P08603 18-264; P08603 1107-1231)” reads 9.4 nM.
“MFHR1^I62 (FHR1_(1-2):FH1-4:FH_(19-20), variant with isoleucine at position 62 of factor H)”: the 50% inhibitory concentration (IC50) in test [4] was determined as 16.1 nM; in test [5], 52.5 nM; in test [2], 4.7 nM; in test [3] it was 26.8 nM.
